Measurements reported in patent US20090074795A1, “Methods for addressing ocular diseases through interference with the wnt signaling pathway” (priority 2007, published 2009).

Legend:
STZ-diabetic rats = experiment: Retinal ICAM-1 (sICAM-1 ELISA) after intravitreal DKK1 in STZ-diabetic rats; type: in vivo, rat; conditions: different doses intravitreal, STZ-diabetic rats 16 weeks after onset, 2 days after injection, vs BSA
Protocol: To determine the role of wnt pathway in retinal inflammation in diabetic retinopathy, different doses of purified DKK1, a specific inhibitor of the wnt pathway, was injected into the vitreous of the right eye of STZ-diabetic rats. As shown by ELISA, diabetes induced over-expression of ICAM-1 in the retina.
According to embodiments of experimental data shown in FIG. 13, different doses of purified DKK1 were injected intravitrealy into the right eye of STZ-diabetic rats at 16 weeks following the onset of diabetes, and the same amounts of BSA into the left eye for control. Soluble ICAM-1 was measured at 2 days after the injection using the sICAM-1 ELISA kit, normalized by total protein concentrations and expressed as ng.
Intravitreal injection: All solutions will be sterilized by filtration and assessed for endotoxin. Animals will be anesthetized, and compounds will be injected into the vitreous of the one eye through the pars plana using a Hamilton syringe. The left eye will receive the same volume of vehicle and will be used as the control. Following injection, the animals will receive equal amounts of topical antibiotic ointment on both eyes. The animals will then be kept in normoxic conditions until the necessary time point for evaluation

Vldlr^−/− mice = experiment: Subretinal injection of purified mouse DKK1 in Vldlr−/− mice (β-catenin phosphorylation, VEGF in eyecup); type: in vivo
Protocol: To confirm the association of the wnt pathway activation with VEGF over-expression in Vldlr^−/− mice, 5 μg purified mouse DKK1, a specific inhibitor of the wnt signal pathway by binding with LRP5/6, were injected into the subretinal space of the Vldlr^−/− mice into one eye and the same amount of a control protein (BSA) into the contralateral eye. Twenty-four hours after the injection, β-catenin phosphorylation and VEGF levels in the eyecup were measured by western blot analysis.
(§1) Vldlr^−/− mice received a subretinal injection of 5 μg purified mouse DKK1 into the right eyes, and the same amount BSA into the left eyes. According to embodiments shown in FIG. 9A, The eyecups were dissected 24 h following the injection for the following analyses, phosphorylated β-catenin and VEGF levels were measured by Western blot analysis of a representative mouse eyecup using the anti-phosphorylated β-catenin and anti-VEGF antibodies, respectively. According to embodiments shown in FIG. 9B, VEGF protein levels in Vldlr^−/− eyecups were measured using ELISA. According to embodiments shown in FIG. 9C, VEGF mRNA levels in the Vldlr^−/− eyecups were measured using quantitative real-time RT-PCR. Values are mean±SD (n=4). According to embodiments shown in FIGS. 9D-9G, Vldlr^−/− mice were injected with 5 μg/eye BSA into the subretinal space of the left eye (FIGS. 9D and 9F) and the same amount of DKK1 into the right eye (FIGS. 9E and 9G). The ocular sections were immunostained with an anti-VEGF antibody (FIGS. 9D and 9E) and an anti-β-catenin antibody (FIGS. 9F and 9G). 400×. PRL, photoreceptor layer. According to embodiments shown in FIGS. 9H and 9I, HUVEC were transfected with the VLDLR siRNA. The transfected cells were treated with 10 μg/ml human DKK1or BSA. VEGF protein was measured in the culture medium by ELISA (FIG. 9H) and the VEGF mRNA measured in the cells by real-time RT-PCR, normalized by 18s RNA and expressed as arbitrary unit (mean±SD, n=3) (FIG. 9I), 24 hours after the addition of DKK1.
VEGF ELISA: The human VEGF QuantiGlo ELISA kit (R&D Systems, Inc., Minneapolis, Minn.) was used to measure VEGF levels in HUVEC and ARPE19 cells, and the mouse VEGF Quantikine ELISA kit (R&D Systems, Inc.) was used for mouse tissues following the manufacturer's protocol. The samples of the culture medium were concentrated 10 times, and the samples from mouse tissues were diluted 10 times to ensure that the VEGF concentration fell within the range of the VEGF standard curves.
Western Blot Analysis: The same amount (100 μg) of total proteins from mouse eyecups were used for Western blot analysis using specific primary antibodies for each protein and blotted with an horseradish peroxidase-conjugated secondary antibody. The signal was developed with a chemiluminescence detection kit (ECL; Amersham Biosciences). Blots were then stripped and re-blotted with an antibody specific for β-actin. Each protein band was semiquantified by densitometry and normalized by β-actin levels in the same gel.
Quantitative Real-time Reverse Transcription (RT)-PCR: Mice eyes were enucleated immediately after death into chilled diethylpyrocarbonate-treated normal saline, and the retinas were dissected. Total RNA was isolated using a commercial kit (Qiagen, Santa Clarita, Calif.). […] Fluorescence changes were monitored after each cycle. […] The average CT (threshold cycle) of fluorescence unit was used to analyze the mRNA levels. […]

HUVEC = experiment: DKK1 on VEGF over-expression in HUVEC transfected with VLDLR siRNA; type: cell-based; conditions: 10 μg/ml human DKK1, 24 hours, ELISA and RT-PCR, vs BSA
Protocol: The regulatory roles of VLDLR and the wnt pathway in VEGF expression in cultured endothelial cells was also investigated.
as §1, with “The ocular sections were immunostained with an anti-VEGF antibody (FIGS. 9D and 9E) and an anti-β-catenin antibody (FIGS. 9F and 9G). 400×. PRL, photoreceptor layer. According to embodiments shown in FIGS. 9H and 9I, HUVEC were transfected with the VLDLR siRNA. The transfected cells were treated with 10 μg/ml human DKK1or BSA.” left out, “DKK1. […]” for “DKK1.”

[1] = system: bovine retinal capillary endothelial cells (BRCEC); experiment: Intracellular ROS generation assay in BRCEC; type: cell-based; conditions: DKK1 6.25-100 nM, 2 h, CM-H2DCFDA
Protocol: A primary culture of bovine retinal capillary endothelial cells (BRCEC) were exposed to 30 mM glucose or TNF-α in the absence or presence of various concentrations of DKK1 (6.25-100 nM) for 2 h. Aminoguanidine was used as a positive control as it is a known inhibitor of ROS generation.
According to embodiments of experimental data shown in FIG. 14, BRCEC were exposed to 30 mM glucose or 1 μg/ml TNF-α in the absence or presence of various concentrations of DKK1 (6.25-100 nM) for 2 h, 10 μM aminoguanidine (AG) was used as positive control. Intracellular ROS generation was measured using CM-H2DCFDA, and expressed as fluorescent unit per well (means±SD, n=3).

[2] = 5 μg/eye subretinal, immunohistochemistry, vs BSA contralateral eye

B1: DKK1: Purified Dickkopf-1 protein (R&D System), specific inhibitor of the wnt pathway binding LRP5/6; mouse protein in mice, human in HUVEC (protein, UniProt O54908 32-272; O54908 32-272, looked up)
Dickkopf-related protein 1 1: TLNSVLINSNAIKNLPPPLGGAGGQPGSAVSVAPGVLYEGGNKYQTLDNYQPYPCAEDEECGSDEYCSSPSRGAAGVGGVQICLACRKRRKRCMRHAMCCPGNYCKNGICMPSDHSHFPRGEIEESIIENLGNDHNAAAGDGYPRRTTLTSKIYHTKGQEGSVCLRSSDCAAGLCCARHFWSKICKPVLKEGQVCTKHKRKGSHGLEIFQRCYCGEGLACRIQKDHHQASNSSRLHTCQRH
Dickkopf-related protein 1 2: TLNSVLINSNAIKNLPPPLGGAGGQPGSAVSVAPGVLYEGGNKYQTLDNYQPYPCAEDEECGSDEYCSSPSRGAAGVGGVQICLACRKRRKRCMRHAMCCPGNYCKNGICMPSDHSHFPRGEIEESIIENLGNDHNAAAGDGYPRRTTLTSKIYHTKGQEGSVCLRSSDCAAGLCCARHFWSKICKPVLKEGQVCTKHKRKGSHGLEIFQRCYCGEGLACRIQKDHHQASNSSRLHTCQRH
modifications: mouse protein in mice, human in HUVEC
STZ-diabetic rats
  ICAM-1 over-expression in the retina: inhibited the ICAM-1 over-expression in a dose-dependent manner
Vldlr^−/− mice; 5 μg subretinal, 24 h, real-time RT-PCR, vs BSA
  VEGF mRNA levels in Vldlr−/− eyecups: significantly decreased
Vldlr^−/− mice; 5 μg subretinal, 24 h, western blot, vs BSA contralateral eye
  phosphorylation of β-catenin in eyecup: increased phosphorylation of β-catenin
Vldlr^−/− mice; 5 μg subretinal, 24 h, western blot/ELISA, vs BSA
  VEGF protein levels in Vldlr−/− eyecups: significantly decreased
Vldlr^−/− mice; [2]
  levels of VEGF in the RPE: significantly decreased
  levels of β-catenin in the RPE: significantly decreased
HUVEC
  VEGF over-expression induced by the VLDLR siRNA: blocked the VEGF over-expression
[1]; 1 μg/ml TNF-α
  ROS generation induced by TNF-α: blocked the ROS generation
[1]; 30 mM glucose
  ROS generation induced by high glucose: blocked the ROS generation
